For one assay, the target named is T1, B7H3 (human, UniProt Q5ZPR3 29-466).
T1 chain: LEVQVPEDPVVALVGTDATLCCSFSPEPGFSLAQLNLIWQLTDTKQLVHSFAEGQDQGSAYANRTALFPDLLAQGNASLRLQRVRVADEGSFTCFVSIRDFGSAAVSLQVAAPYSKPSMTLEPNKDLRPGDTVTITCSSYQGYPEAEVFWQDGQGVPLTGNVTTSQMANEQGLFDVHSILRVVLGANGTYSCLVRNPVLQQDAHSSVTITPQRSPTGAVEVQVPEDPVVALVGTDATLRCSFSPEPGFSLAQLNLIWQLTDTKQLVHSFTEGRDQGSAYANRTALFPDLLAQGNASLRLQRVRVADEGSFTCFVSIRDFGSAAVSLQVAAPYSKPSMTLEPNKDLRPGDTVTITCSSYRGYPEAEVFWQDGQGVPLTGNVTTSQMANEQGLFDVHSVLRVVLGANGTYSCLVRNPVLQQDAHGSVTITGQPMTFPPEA
The experiment in a line: -; monovalent, 1+1 bispecific format.

The target of another assay is T2, NKG2D (human, UniProt P26718 78-216).
T2 chain: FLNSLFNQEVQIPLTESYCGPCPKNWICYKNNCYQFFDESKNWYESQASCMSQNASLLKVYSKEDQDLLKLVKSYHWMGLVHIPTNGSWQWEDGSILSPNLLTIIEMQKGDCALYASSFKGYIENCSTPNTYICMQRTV

The target of assay [1] is XENP38100 (1D2B4). As to the kind of experiment: Octet. (In BLI a coated tip is dipped into the sample, and binding shifts an interference pattern.)
The target of assay [2] is XENP38100 (1D2B4). The experiment in a line: Octet. The source holds these as a separate data set.

Numbering of substitutions follows the chain as printed. Where two headings read alike, the source gives them in different places.

B1: 38E2_H2_L1.1 (antibody, V domains shown)
VH: EVQLLESGGGLVQPGGSLRLSCAVSGFSLSSYGVIWVRQAPGKGLEYVSWVSSGGSTNYASSVKGRFTISRDTSKNTVYLQMNSLRAEDTAVYFCARGATNSGTDIWGPGTLVTVSS
VL: DIVMTQSPSSLSASVGDRVTITCRASQSINSWLSWYQQKPGKPPKLLIYGASNLASGVPSRFKGSGSGTDFTLTISSLQPEDFATYYCQNNYGIIAAGATFGGGTKVEIK
Molecule B1 gave a Kd with B7H3 of 0.5 nM.

B2: 2E4A3_H1.22_L1 (antibody, V domains shown)
VH: QVQLVQSGAEVKKPGASVKVSCKASGYIFTNNYMHWVRQAPGQGLEWMGIISPSVGRTAYAQKFQGRVTMTRDTSTSTVYMELSSLRSEDTAVYYCARGGGSSPRLDYWGQGTLVTVSS
VL: not shown
Turning to B2, in the assay with B7H3, the Kd is 6.1 nM.

B3: XENP40557 B7H3 Fab x NKG2D scFv (mAb-scFv) (antibody)
chain 1: EVQLLESGGGLVQPGGSLRLSCAVSGFSLSSYGVIWVRQAPGKGLEYVSWVSSGGSTNYASSVKGRFTISRDTSKNTVYLQMNSLRAEDTAVYFCARGATNSGTDIWGPGTLVTVSSASTKGPSVFPLAPSSKSTSGGTAALGCLVKDYFPEPVTVSWNSGALTSGVHTFPAVLQSSGLYSLSSVVTVPSSSLGTQTYICNVNHKPSDTKVDKKVEPKSCDKTHTCPPCPAPPVAGPSVFLFPPKPKDTLMISRTPEVTCVVVDVKHEDPEVKFNWYVDGVEVHNAKTKPREEEYNSTYRVVSVLTVLHQDWLNGKEYKCKVSNKALPAPIEKTISKAKGQPREPQVYTLPPSREEMTKNQVSLTCDVSGFYPSDIAVEWESDGQPENNYKTTPPVLDSDGSFFLYSKLTVDKSRWEQGDVFSCSVMHEALHNHYTQKSLSLSPGK
chain 2: not shown
chain 3: DIVMTQSPSSLSASVGDRVTITCRASQSINSWLSWYQQKPGKPPKLLIYGASNLASGVPSRFKGSGSGTDFTLTISSLQPEDFATYYCQNNYGIIAAGATFGGGTKVEIKRTVAAPSVFIFPPSDEQLKSGTASVVCLLNNFYPREAKVQWKVDNALQSGNSQESVTEQDSKDSTYSLSSTLTLSKADYEKHKVYACEVTHQGLSSPVTKSFNRGEC
As for B3, in the assay with NKG2D, the Kd was 28.8 nM.

B4: XENP40376 B7H3 Fab x NKG2D scFv (1+1) (antibody)
chain 1: B3 chain 1
chain 2: not shown
chain 3: B3 chain 3
The molecule B4 gave a Kd with NKG2D of 7.72 nM.

B5: cynomolgus NKG2D (receptor)
chain: T2 chain with D38N, T128I
For B5, the Kd in the assay with XENP38100 (1D2B4) [1] came out at 5.05 nM.

B6: human NKG2D (Fc fusion)
chain: T2 chain
In turn, B6 had a Kd in the assay with XENP38100 (1D2B4) [2] of 10.4 nM.

The Kd is the equilibrium constant for the complex coming apart.

The values above are taken from patent US20230151095A1 (published 2023).
